This note sets out measurements from PMC2116009 (The Journal of Cell Biology, 1990).

This test deals with chicken transferrin receptor, endogenous on chicken embryo fibroblasts (chicken (endogenous in CEF), UniProt Q90997 1-776). The test can be described thus: radioligand binding.
chicken transferrin receptor, endogenous on chicken embryo fibroblasts, sequence (Q90997 whole entry): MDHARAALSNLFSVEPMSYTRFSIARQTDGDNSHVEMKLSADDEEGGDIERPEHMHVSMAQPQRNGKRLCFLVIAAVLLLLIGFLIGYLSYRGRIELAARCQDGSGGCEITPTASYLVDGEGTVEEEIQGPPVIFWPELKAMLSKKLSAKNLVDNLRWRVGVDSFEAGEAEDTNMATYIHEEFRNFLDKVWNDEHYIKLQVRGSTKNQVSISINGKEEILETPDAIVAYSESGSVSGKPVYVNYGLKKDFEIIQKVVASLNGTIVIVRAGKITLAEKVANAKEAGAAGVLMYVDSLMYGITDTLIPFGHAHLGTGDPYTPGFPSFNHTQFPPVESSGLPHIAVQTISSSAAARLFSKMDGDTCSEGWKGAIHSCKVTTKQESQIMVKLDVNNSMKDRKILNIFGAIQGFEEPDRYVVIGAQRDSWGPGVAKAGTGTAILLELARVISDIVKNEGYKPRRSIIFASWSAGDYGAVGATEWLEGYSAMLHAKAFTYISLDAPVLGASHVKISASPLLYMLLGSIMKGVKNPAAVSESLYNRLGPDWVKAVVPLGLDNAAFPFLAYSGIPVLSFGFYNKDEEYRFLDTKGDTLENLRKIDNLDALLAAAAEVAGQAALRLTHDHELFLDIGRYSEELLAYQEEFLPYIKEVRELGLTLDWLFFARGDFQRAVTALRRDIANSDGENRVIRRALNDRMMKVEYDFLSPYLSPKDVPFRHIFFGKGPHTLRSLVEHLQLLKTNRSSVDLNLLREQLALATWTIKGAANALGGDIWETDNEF

B1: ovotransferrin (ligand)
chain: APPKSVIRWCTISSPEEKKCNNLRDLTQQERISLTCVQKATYLDCIKAIANNEADAISLDGGQAFEAGLAPYKLKPIAAEVYEHTEGSTTSYYAVAVVKKGTEFTVNDLQGKTSCHTGLGRSAGWNIPIGTLLHRGAIEWEGIESGSVEQAVAKFFSASCVPGATIEQKLCRQCKGDPKTKCARNAPYSGYSGAFHCLKDGKGDVAFVKHTTVNENAPDQKDEYELLCLDGSRQPVDNYKTCNWARVAAHAVVARDDNKVEDIWSFLSKAQSDFGVDTKSDFHLFGPPGKKDPVLKDLLFKDSAIMLKRVPSLMDSQLYLGFEYYSAIQSMRKDQLTPSPRENRIQWCAVGKDEKSKCDRWSVVSNGDVECTVVDETKDCIIKIMKGEADAVALDGGLVYTAGVCGLVPVMAERYDDESQCSKTDERPASYFAVAVARKDSNVNWNNLKGKKSCHTAVGRTAGWVIPMGLIHNRTGTCNFDEYFSEGCAPGSPPNSRLCQLCQGSGGIPPEKCVASSHEKYFGYTGALRCLVEKGDVAFIQHSTVEENTGGKNKADWAKNLQMDDFELLCTDGRRANVMDYRECNLAEVPTHAVVVRPEKANKIRDLLERQEKRFGVNGSEKSKFMMFESQNKDLLFKDLTKCLFKVREGTTYKEFLGDKFYTVISSLKTCNPSDILQMCSFLEGK
In general, Kd refers to the constant that tells how readily two partners part at equilibrium. Lower therefore signals a tighter complex. For the molecule B1, the Kd was about 100 nM.
